Our source for the stoichiometry N values is article PMC4114019.

The target in this assay is T1, Purified FLAG-IKKε protein, Q14164.
T1 chain: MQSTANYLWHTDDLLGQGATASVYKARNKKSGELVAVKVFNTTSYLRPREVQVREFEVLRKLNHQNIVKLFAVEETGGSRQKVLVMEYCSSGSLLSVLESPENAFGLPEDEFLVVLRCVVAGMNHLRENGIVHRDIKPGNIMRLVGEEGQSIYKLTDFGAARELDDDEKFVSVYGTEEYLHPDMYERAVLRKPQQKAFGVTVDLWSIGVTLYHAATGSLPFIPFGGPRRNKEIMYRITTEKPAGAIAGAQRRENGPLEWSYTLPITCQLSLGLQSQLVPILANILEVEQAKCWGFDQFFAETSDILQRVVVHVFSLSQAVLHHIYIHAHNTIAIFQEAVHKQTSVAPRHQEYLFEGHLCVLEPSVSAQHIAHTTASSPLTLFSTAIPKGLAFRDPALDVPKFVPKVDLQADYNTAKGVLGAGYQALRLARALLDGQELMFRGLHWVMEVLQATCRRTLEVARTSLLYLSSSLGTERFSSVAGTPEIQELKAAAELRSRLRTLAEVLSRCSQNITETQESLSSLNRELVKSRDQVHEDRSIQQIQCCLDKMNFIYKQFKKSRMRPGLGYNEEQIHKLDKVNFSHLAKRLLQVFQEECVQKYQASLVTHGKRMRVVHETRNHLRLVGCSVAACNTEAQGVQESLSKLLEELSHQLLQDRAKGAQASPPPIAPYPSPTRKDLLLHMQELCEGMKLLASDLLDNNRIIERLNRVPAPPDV
Put plainly: native gel or EMSA. The settings on record: remark: other sources report otherwise. Background: In EMSA bound probe runs differently from free probe, usually more slowly.

B1: Purified FLAG-IKKε protein, Q14164 1-716 (enzyme)
chain: T1 chain
Broadly, the stoichiometry N is a count of units in the complex or per binding partner. Take B1: the stoichiometry N was determined as 2.
